Patent US20240083948

Experiments:
[1] = target: AKT1 Ser473Asp mutant, active (UniProt P31749)
[2] = target: AKT1 mutant with a deletion in the PH domain, active (UniProt P31749)
AKT1 (PKB alpha), active = AKT1 (PKB alpha), active (UniProt P31749)
[3] = tested on: T1, ZaTa peptide (Ala-Lys-Arg-Val-Lys-Gly-Arg-Thr-Trp-Thr-Leu-Cys-Gly-Thr-Pro-Glu-Tyr)
T1 sequence: AKRVKGRTWTLCGTPEY

[4] = tested on: T2, adjacent peptide Gly-Phe-Ala-Lys-Arg-Val-Lys-Gly-Arg-Thr-Trp-Thr-Leu
T2 sequence: GFAKRVKGRTWTL

[5] = tested on: PKAc, full-length, active (catalytic subunit of Protein Kinase A)

Sequence of AKT1 (PKB alpha), active (P31749 whole entry, looked up): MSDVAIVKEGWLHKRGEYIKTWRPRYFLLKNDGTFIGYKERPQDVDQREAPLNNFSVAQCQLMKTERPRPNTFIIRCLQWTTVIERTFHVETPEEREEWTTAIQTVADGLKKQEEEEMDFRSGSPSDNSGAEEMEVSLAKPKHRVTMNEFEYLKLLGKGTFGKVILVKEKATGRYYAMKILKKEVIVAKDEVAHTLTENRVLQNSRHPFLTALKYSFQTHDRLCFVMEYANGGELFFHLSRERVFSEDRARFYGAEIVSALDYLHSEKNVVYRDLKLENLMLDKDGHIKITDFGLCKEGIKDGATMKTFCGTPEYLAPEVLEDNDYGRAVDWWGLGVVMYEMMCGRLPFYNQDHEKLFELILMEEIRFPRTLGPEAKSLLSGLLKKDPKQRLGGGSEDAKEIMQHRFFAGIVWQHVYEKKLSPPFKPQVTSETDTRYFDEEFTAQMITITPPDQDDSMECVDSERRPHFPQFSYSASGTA
Sequence of AKT1 mutant with a deletion in the PH domain, active (P31749 whole entry, looked up, stated change not applied, the tested form may be a part): as the sequence (P31749 whole entry, looked up) above
Sequence of AKT1 Ser473Asp mutant, active (P31749 whole entry S473D, the tested form may be a part): as the sequence (P31749 whole entry, looked up) above, with S473D counted along it

For “PKAc, full-length, active (catalytic subunit of Protein Kinase A)”, the “AKT kinase assay, catalytic activity of the AKT1 mutant” value [1] was “The decrease in the catalytic activity of AKT by PKAc was also observed with two mutants and active forms of AKT1 ... the other one with a Ser473Asp mutation”, the “AKT kinase assay, catalytic activity of the AKT1 mutant” value [2] was “The decrease in the catalytic activity of AKT by PKAc was also observed with two mutants and active forms of AKT1, one with a deletion in the PH domain” and the “AKT kinase assay, Ser-9 GSK-3 GST fusion protein as substrate” value (AKT1 (PKB alpha), active) was “the kinetic activity of AKT was dramatically reduced”.
human PKAc expressed in Sf9 cells was tested, and the “AKT kinase assay, catalytic activity of AKT” value (AKT1 (PKB alpha), active) was “the same inhibitory effect was observed ... with human PKAc expressed in Sf9 cells”.
AKT1 (PKB alpha), active was tested, and the “AKT1 kinase assay, phosphorylation level of Ser-9 GSK-3 GST substrate (western blot)” value [3] was “The phosphorylation level of Ser-9 GSK-3 GST substrate was significantly reduced after adding the ZaTa peptide to the AKT1 kinase assay”, the “control kinase reactions that contained the peptide and AKT only” value [3] was “ZaTa peptide itself was not a substrate for AKT” and the “AKT1 in vitro catalytic activity (incorporation of γ-32P into Ser-21 GSK-3β substrate peptide)” value [4] was “the adjacent overlapping peptide was not able to inhibit AKT1”. For the same substance, the “PKA kinase assay, phosphorylation level of DARPP-32 at Thr-34” value [5] was “addition of the active AKT to the PKA kinase assay increased the catalytic activity of PKAc” and the “phosphorylation level of PKAc at Thr-197” value [5] was “the increase in the PKAc catalytic activity was accompanied by an increase in the phosphorylation level of PKAc at Thr-197”.
For active PKAc purified from bovine tissue, the “AKT kinase assay, catalytic activity of AKT” value (AKT1 (PKB alpha), active) was “the same inhibitory effect was observed with active PKAc purified from bovine tissue”.
